Measurements as given in the nanobody polyreactivity screen of Harvey et al. (2022).

Assay: yeast display, Sf9 membrane polyspecificity reagent, FACS + sequencing; frameworks hold sequencing errors
Outline: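 In a synthetic yeast display library (Saccharomyces cerevisiae BJ5465), nanobody expression was induced with galactose for 36–48 hours. FACS gates were set low and high (top ~1%) using anti-HA fluorescence for expression and streptavidin fluorescence for binding of the Sf9 membrane reagent. Each polyreactivity label is drawn from the gate of origin.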

## QVQLVESGGGLVQAGGSLRLSCAASGFTFIDYAMGWYRQAPGKERELVAAISKRGGSTYYADSVKGRFTISRDNAKNSVYLQMNSLKPEDTAVYYCNAKAYHQGYLTRDDYWGQGTQVTVSS
  polyreactivity (PSR sort gate): high polyreactivity

## QVQLVESGGGLVQAGGSLRLSCAASGIIFRFYARGWYRQAPGKERELVAAISSSGTRTYYADSVKGRFTISRDNAKNTVYLQMNSLKPEETAVYYCNAAYHYYDYDYWGQGTQVTVSS
  polyreactivity (PSR sort gate): high polyreactivity

## HVQLVESGGGLVQAGGSLRLSCAASGYTFVPYAMGWYRQAPGKERELVAAISSSGGDTYYADSVKGRFTISRDNAKNTVYLQMNSLKPEDTAVYYCNTGVYVWQYWYYGFDYWGQGTQVTVSS
  polyreactivity (PSR sort gate): low polyreactivity

## QVQLVESGGGLVQAGGSLRLSCAASGSTFGKNALGWYRQAPGKERELVAAITRRGGSTNYADSVKGRFTISRDNAKNTVYLQMNSLKPEDTAVYYCNAGYGYGYPKYDYWGQGTQVTVSS
  polyreactivity (PSR sort gate): high polyreactivity

## QVQLVESGGGLVQAGGSLRLSCAASGSIFGDYVLGWYRQAPGKERELVASISESTDSTYYADSVKGRFTISRDNAKNTVYLQMNSLKPEDTAVYYCATAYPEWAVWGYDYWGQGTQVTVSS
  polyreactivity (PSR sort gate): low polyreactivity

## QVQLVESGGGLVQAGGSLRLSCAASGSIFFRYAMGWYRQAPGKERELVATIRSSGGRTHYADSVKGRFTISRDNAKNTVYLQMHSLKPEDTAVYYCHYGVYQYPQDYDYWGQGTQVTVSS
  polyreactivity (PSR sort gate): low polyreactivity

## QVQLVESGGGLVQAGGSLRLSCAASGSTFYVYAMGWYRQAPGKERELVAAITTGGSTYYADSVKGRFTISRDNAKNTVYLQMNSLKPEDTAVYYCAADDPDPYDVPSYDYWGQGTQVTVSS
  polyreactivity (PSR sort gate): low polyreactivity

## QVQLVESGGGLVQAGGSLRLSCAASGRIFTRNAMGWYRQAPGKERELVATISAGGGRTSYADSVKGRFTISRDNAKNTVELQMNSLKPEDTAVYYCAARGQVGYYWGQGTQVTVSS
  polyreactivity (PSR sort gate): high polyreactivity

## QDQLVESGGGLVQAGGSLRLSCAASGSTFTYYAMGWYRQAPGKERELVAAIRNSDGTTYYADSVKGRFTLSRDTAKFTVYLQMNSLKPEDTAVYYCAAGPRGRWSTYDYWGQGTQVNVSS
  polyreactivity (PSR sort gate): low polyreactivity

## QVQLVESGGGLVQAGGGLRLSCAASGNTFRYYAMGWYIQAPGKERELVATITSGGRTYYADSVKGRFTISRDNAKNTVYLQMNSLKPEDTAVYYCNADYFQDRLDYWGQGTQVTVSS
  polyreactivity (PSR sort gate): low polyreactivity

## QVQLVESGGGLVQAGGRLRIICAASGYIFRFNAMGWYRQAPGKERELVAVITKSGGSTYYADSVKGRFTISRDNAKNTVYLQMNRLKPEDSAVYYCNADRFYIDYTNTYDSIRDYWGQGTQVTVSS
  polyreactivity (PSR sort gate): low polyreactivity

## QVQLVESGGVLVQAGGSLRLSCAASGTFVVNDMGWYRQGPGKERELVAALSWSGGSTYYADSVKGRFTISRDNAKNTVYLQMTSLKPEDTAVYYCAADNWWVYPVWYENDYWGQGTQVTVSS
  polyreactivity (PSR sort gate): low polyreactivity

## QVQLVESGGGLGQAGGSLRLSCAASGYIFPIYAMGWYRQAPGKERELVAAITESGGSTYYADSVKGRFTISRDNAKNTVYLQMNSLKQEDTAVYYCAKEVVKHPRGKLDYWGQGTQVTLSS
  polyreactivity (PSR sort gate): low polyreactivity

## QVQLVESGGGLVQAGGSLRLSSAASGITFQAYPMGWYRQAPGKQRELVAAISNGGSTYYADSVKGRFTISRDNAKNTVYLEMNSLNPEDTAVYYCAAVSYYPARYGYWGQGTQVTVSS
  polyreactivity (PSR sort gate): high polyreactivity

## QVQLVESGGGLVQAGGSLRLSCAASGRIFIVYVMVWYRQAPGKESELVAAITGRGGSTYYADSVKGRFTISHDNAKNTVYLQMNSLKPEDTAVYYCDDYDGGGYDSWGQGNQVTVSS
  polyreactivity (PSR sort gate): low polyreactivity

## QVQLVESGGGLVQAGGSLRLSCAASGFTFTRNVMGWYRQAPGKERELVAAINASGGRTYYADSVKGRFTISRDNAKNTVYLQMNSLKPEDTAVYYCAARDTQLGGSRGGSWGQGTQVTVSS
  polyreactivity (PSR sort gate): high polyreactivity

## QFQLVESGGGLVQAGGSLRLSCAASGRIFYYYAMGWDRQAPGKERELVASINSVGTTTYADSVKGRFTISRDNAKNTVYLQMNSLKPEDTAVYYCARDTGSIYYDGYEYDYWGQGTQVTVSS
  polyreactivity (PSR sort gate): low polyreactivity

## QVQLVESGGGLVQAGGSLRLSCAASGRIYLKYTMGWYRQAPGKEREMVAAISRGGSTYYADSVKGRFTISRDNAKNTVYLQMNSLKPEDTAVYYCAATSYRRTGYNYWGQGTQVTVSS
  polyreactivity (PSR sort gate): high polyreactivity

## QVQLVESGGGLVQAGGSLRLSCAASGFTFSSNAMGWYRQAPGKERELVAAISFNSTSTYYADSVKGRFTISRDNAKNTVYIQMNSLKPEDTAVYYCAKESPPAEGDSGYDYWGQGTQVTVSS
  polyreactivity (PSR sort gate): low polyreactivity

## QVQLVESGGGLVQAGGSLRLSCATSGGIFDSYAMVWYRQAPGKERELVASISWSGGSTYYADSVKGRFTISRDNEKNTVYLQMKSLKPEVTAVYYCAADRPYAGRFWKGYHSALYDYWGQGTQVTVSS
  polyreactivity (PSR sort gate): low polyreactivity

## QVQLVESGGALLQAGGSLRLSCAASGGTFDTYAMGWYRQAPGKERELDAVIRASGGDTYYADSVKGRFTISRDNAKNTVYLQMNSLKPEDTAVYYCAAVLPFKYDYWGQGTQVTVSS
  polyreactivity (PSR sort gate): low polyreactivity

## QVQLVESGGGLVQPGGSLRLSCAASGSTFSGYTMGWYRQAPGKERELVASISSGVSTYYADSVKGRFTISRDNAKNTVYLQMNSLKPEDTAVYYCAADSVGDYGYQVYASWGYEDEYWGQGTQVTVSS
  polyreactivity (PSR sort gate): low polyreactivity

## QVQLVESGGRLVQAGGSLRLSCAASGIIFRFYPMGWSRQAPGKERELVAAIRTSGGSTYYADSVKGRFTISRDNAKNTVYLQMNSLKPEDTAVYYCAAGPRAYSYRIYALYYWGQGTQVTVSS
  polyreactivity (PSR sort gate): high polyreactivity

## QVHLVESGGGLDQAGGSLRLICPASGLIFYRYAMGWYRQAPGKERELVAAITTNGARTYYADSVKGRFTISRDNAKNTVYLQMNSLIPEDTAVYYCAGYGAGKFWAEHNYWGQGTQVTVSS
  polyreactivity (PSR sort gate): high polyreactivity

## QVQLVESGGGLVQAVGSLRLSGAASGSIFQYTAMGRYRQAPGKERELVAAISSRGGIRYYADSVKGRFTISRDNAKYTVFLQMNSLKPEDTAVYYCAAEAYYSDVRWSEYWGQGTQVTVSS
  polyreactivity (PSR sort gate): high polyreactivity

## QVQLVESGGGLVQAGGSLRLSCAASGRIFYGYAMGWYRQAPGKERELVAAISRGGTRTFYADSVKGRFTISRDNAKNTVYLQMNSLKPEDTAVYYCAADPGPHRYSYDYWGQGTQVTVSS
  polyreactivity (PSR sort gate): high polyreactivity

## QVQLVESGGGLVQAGGSLRLSCAASGSIFTKYAMGWYRQAPGKERELVAAISKTGGSTYYADSVKGRFTISRDTAKNTVYLQMNSLKPEDTAVYYCNAAGGYSVYKRGRDYWGQGTQVTGSS
  polyreactivity (PSR sort gate): high polyreactivity

## QVQLVESGGGLVQAGGSLRLSCAASGYTFKRYAMGWYRQAPGKERELVAAISQSGTNTYYADSVKGRFTISRDNAKNTVYLQMNSLKPEDTAVYYCAAKPPRRYQLMDYWGQGTQVTVSS
  polyreactivity (PSR sort gate): high polyreactivity

## QVQLVESGGGLVQAGGSLRLSCAASGRTIVLYVMGWYRQAPGKEREFVADINAGGGSTYYADSVKGRFTISRDNAKNTVYLQMNSLKPEDTSVYYCAATRDLGQLFRFGYWGQSTQVTVSS
  polyreactivity (PSR sort gate): low polyreactivity

## QVQLVESGGGLVQAGGSLRLSCAASGLKFGVNPMGWYRPAPGKERELVAAISRDSDTNYADSVKGRFTISRDNAKNTVYLQMISLKPEDTAVYYFNAYSEWPVPSPPRSQSLDYWGQGTQVTVSS
  polyreactivity (PSR sort gate): low polyreactivity

## QVQLVYSRRGLVQAGGSLRLSCAASGLIFAWYAIGWYRQATVNVRELVATISWNGDRTYYADSVKGRFTIARDNGKTSVYLQINSLQAEDTAVYYCAAYSVFRSYDYWGQGTQVTVSS
  polyreactivity (PSR sort gate): high polyreactivity

## QVQLVESGGGLVQAGGSLRLSCAASGSIFSPNAMGWYRQAPGKERELVATISFSGGRTYYADSVKGRFTISRDNAKNTVYLQMNSLKPEDTAVYYCAKAYYYTDMDYWGQGTQVTVSS
  polyreactivity (PSR sort gate): low polyreactivity

## QVQLVESGGGLLQAAGSLSLSCAASGSIFKYYAMGWYRQAPGKERELVAAISASGGSTSYADSVKGRFTISRDNAKNTVYLQMNSLKPEDTAVYYCAADGVSYAYRYDYWGQGTQVTVSS
  polyreactivity (PSR sort gate): low polyreactivity

## QVQLVESGGGLVQAGGSLRLSCAASGRTFIPYAMAWYRQAPGKEMELVAAISTTAGTTYYADSVKGRFTISRDNAKNTVYLQMNSLKPEDTAVYYCAAEGYGSFFVAMDYWGQGTQVTVSS
  polyreactivity (PSR sort gate): high polyreactivity

## QVQLVESGGGLVQAGGSLRLSCAASGLIFYKYAMGWYRQAPGKERELVASISTGGGSTYYADSVKGRFTISRDNAKNTVYLQMNSLKPEDTAVYYCAARWWSRFRGSHSLYDYWGQGTQVTVSS
  polyreactivity (PSR sort gate): high polyreactivity

## QVQLVESGGGLVQAGGSLRLSCAASGSIFSSYAMGWYRQAPGKERELVAGISKSGGSTYYADSVKGRFTISRDNAKNTVYLQMNSQKPEDTAVYYCAGPSYWGGGRYRYGYWGQGTQVTVSS
  polyreactivity (PSR sort gate): high polyreactivity

## QVQLVESGGGLVQAGGSLRLSCAASGSIFDYYTMGWYRQAPGKEREWVAAITRSGGRTYYADSVKGRFTISRDNAKNTVYLQMNSLKPEDTAVYYCATRAVSRFGNGPYDYWGQGTQVTVSS
  polyreactivity (PSR sort gate): high polyreactivity

## QVHLVESGGGLVQAGGSLRLSCAASGITFQRYAMGWYREAPGKERELVASISTNGGTTYYADSVKGRFTISRHNAKNTVYLQMNSLKPEDTAVYYCNAESGYVYYIRYNYWGQGTQVTVSS
  polyreactivity (PSR sort gate): high polyreactivity

## QVQLVESGGGLVQAGGSLRLSCAASGITFWRYALGWYRQAPGKEMELVAASRWSGSTYADSVKGRFTISRDNAKNTVYLQMNSLKPEDTAVYYCAAYPIGGYHDMDYWGQGTQVTVSS
  polyreactivity (PSR sort gate): high polyreactivity

## QVQLVESGGGLVQAGCSLRLSCAASRYIFYFYAMGWYRQAPGKERELVAAINSGGTTNYADSVKGRFTISRDNAKNTVYLQMNSLKAEDTAVYYCAARLLIRYYYWGQGTQVTVSS
  polyreactivity (PSR sort gate): high polyreactivity

## QVQLVESGGGLVQAGGSLRLSCAASGRTFWTYTMGWYRQAPGKERELVAAISYSGSRTYYADSVKGRFTISRDNAKNTVYLQMNSQKPEETAVYYWATDDSDYLYRTVSAWEYDYWGQGTQVTVSS
  polyreactivity (PSR sort gate): low polyreactivity

## QVQLVESGGCLVQAGGSLRLSCAASGRIFHSNAMGWYRQAPGKERELVAAISTAGSTYYADSVKGRFTISRDNAKNTVYLQMNSLKPEDTAVYYCNAESPWWWEYDSWGQGTQVTVSS
  polyreactivity (PSR sort gate): high polyreactivity

## QVQLVESGGGLVQAGGSLRLSCAASGFIFHTYAMGWYRQAPGKEREFVAAISGGTSSTYYADSVKGRFTISRDNAKNTVYLQMNSLKPEDTAVYYCAARSRRGGYPRYYYWGQGTQVTVSS
  polyreactivity (PSR sort gate): high polyreactivity
